Where two headings read alike, the source gives them in different places. *1 amine or outer side, *2 acyl side, *3 side chain or, on linkers, in order; H or OH if unused. Where a SMILES comes first, the peptide text is derived from it. Bridges are numbered along the chain shown (N, C = ends). [ ]: non-standard residue; d: D form. The star is where a group is joined. X1 = N#C[C@@H]1CC(F)(F)CN1C(=O)CNC(=O)c1ccnc2ccc(OCCCN3CCN(*)CC3)cc12; DOTA = O=C(O)CN1CCN(CC(=O)O)CCN(CC(=O)*)CCN(CC(=O)O)CC1; 2Nal = N[C@@H](Cc1ccc2ccccc2c1)C(=O)O; Cit = NC(=O)NCCC[C@H](N)C(=O)O; Suc = O=C(CCC(=O)[*:2])[*:1]; AEEA = NCCOCCOCC(=O)O Bounds are passed on as bounds.

Data set [1] is described as follows: Determination of hydrophilicity/lipophilicity (n-octanol/water distribution coefficient). Type of data set: physicochemical. Conditions: HEPES buffer pH=7.4 / n-octanol. The protocol: 10 μL of Purified ^68Ga-SDYD01 was diluted to 500 μL with HEPES buffer (pH=7.4), then 500 μL of n-octanol was added. The mixture was vortexed for 30 min and then centrifuged. Subsequently, 450 μL each of the aqueous and organic phases were taken and centrifuged again. Then, 100 μL each of the aqueous and organic phases were taken, and the radioactivity was measured using a γ counter to calculate the n-octanol/water distribution coefficient (Log Do/w). The measured Log Do/w value for ^68Ga-SDYD01 was −2.54±0.01, and for ^177Lu-SDYD01 was −2.55±0.05.
10 μL of purified ^68Ga-SDYD02 was diluted to 500 μL with HEPES buffer (pH=7.4), then 500 μL of n-octanol was added. […] Then, 100 μL each of the aqueous and organic phases were taken, and the radioactivity was measured using a γ counter to calculate the n-octanol/water distribution coefficient (Log Do/w). The measured Log Do/w value for ^68Ga-SDYD02 was −2.47±0.03, and for ^177Lu-SDYD02 was −2.35±0.02.
10 μL of purified ^68Ga-SDYD05 was diluted to 500 μL with HEPES buffer (pH=7.4), then 500 μL of n-octanol was added. […] Then, 100 μL each of the aqueous and organic phases were taken, and the radioactivity was measured using a γ counter to calculate the n-octanol/water distribution coefficient (Log Do/w). The measured Log Do/w value for ^68Ga-SDYD05 was −2.37±0.02, and for ^177Lu-SDYD05 was −2.46±0.05. […]

The test system of data set [2] is subcutaneous xenograft tumors (U87 MG cells). Briefly: Small animal PET imaging and biodistribution study. Type of data set: in vivo, NSG mice. The gist of the method: (§1)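 NSG mice bearing ~150 mm^3 subcutaneous U87 MG tumours received ~7.4 MBq of 68Ga-labelled tracer i.v., with micro-PET/CT static 20-min 3D scans at 30, 60 and 120 min. For biodistribution, mice were euthanised at 30/60/120 min, or 30/60/90 min for SDYD07, SDYD08 and SDYD07-1. Tissue radioactivity was decay-corrected and expressed as SUV and %ID/g.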

Data set [3] in a line: Small animal PET imaging and biodistribution study. Type of data set: in vivo, NSG mice. Conditions: NSG, mouse, in vivo, iv, 7.4 MBq, total radioactivity. The procedure, abridged: as §1
Where [4] appears, read: absolute uptake value in the tumor.

As to `N#C[C@@H]1CC(F)(F)CN1C(=O)CNC(=O)c1ccnc2ccc(OCCCN3CCN(C(=O)CCC(=O)N[C@@H](CCCCNC(=O)CN4CCN(CC(=O)O)CCN(CC(=O)O)CCN(CC(=O)O)CC4)C(=O)NCCOCCOCC(=O)NCCOCCOCC(=O)N[C@@H](CCCNC(=N)N)C(=O)N[C@@H](CCCNC(=N)N)C(=O)N[C@@H](Cc4ccc5ccccc5c4)C(=O)N[C@H]4CSSC[C@@H](C(=O)N[C@@H](CCCNC(=N)N)C(N)=O)NC(=O)[C@H](CCCNC(N)=O)NC(=O)[C@H](CCCNC(=N)N)NC(=O)[C@H](Cc5ccc(O)cc5)NC(=O)[C@@H]5CCCN5C(=O)[C@H](CCCCN)NC(=O)[C@H](CCCCN)NC(=O)[C@H](CCCNC(N)=O)NC(=O)[C@H](Cc5ccc(O)cc5)NC4=O)CC3)cc12` [^68Ga-SDYD01, metal not drawn] ({X1-Suc}-K(DOTA)[AEEA][AEEA]RR[2Nal]CY[Cit]KKPYR[Cit]CR-NH2; disulfide 7-16), in data set [1], the “n-octanol/water distribution coefficient (Log Do/w)” value is on record as −2.54±0.01. Also, the “radioactive uptake in the tumor sites (in words)” value in data set [2] (mouse, in vivo) is on record as “significant radioactive uptake in the tumor sites”. Besides, in data set [3] (setting [4]), the tissue uptake at 0.5 h is at least 10 %ID/g and the tissue uptake at 1 h is at least 10 %ID/g.

As for `CCCCCC(=O)N[C@H]1CSCc2cc(CSCCNC(=O)[C@H](CCCCNC(=O)CN3CCN(CC(=O)O)CCN(CC(=O)O)CCN(CC(=O)O)CC3)NC(=O)COCCOCCNC(=O)COCCOCCNC(=O)CCN3C(=O)CC(SCCNC(=O)CCC(=O)NCc4ccc(NC(=O)COCC(=O)N[C@H](Cc5ccccc5)C(=O)N[C@@H](CCC(N)=O)C(=O)N[C@@H](Cc5c[nH]c6ccccc56)C(=O)N[C@@H](C)C(=O)N[C@H](C(=O)NCC(=O)N[C@@H](Cc5c[nH]cn5)C(=O)NC(CC(C)C)CC(C)C)C(C)C)cc4)C3=O)cc(c2)CSC[C@@H](C(=O)O)NC(=O)[C@H](Cc2ccccc2)NC(=O)[C@H](CCC(N)=O)NC(=O)C([C@@H](C)O)NC(=O)[C@@H]2CCCN2C(=O)[C@@H]2CCCN2C1=O` (some centres unmarked) [^68Ga-SDYD04, metal not drawn], the “n-octanol/water distribution coefficient (Log Do/w)” value in data set [1] is −1.63±0.07. For the same compound, the “radioactive uptake in the tumor sites (in words)” value in data set [2] (tail vein injection, U87 MG tumor-bearing NSG mice) was “significant radioactive uptake in the tumor sites”. Moreover, in data set [3] (30 minutes post-injection, read-out: absolute uptake value in the tumor), the tissue uptake at 0.5 h was at least 10 %ID/g. For the same compound, in data set [3] (60 minutes post-injection, read-out: absolute uptake value in the tumor), the tissue uptake at 1 h is at least 10 %ID/g.

Source of the values: US20260069728A1, “MULTI-TARGETING COMPOUND AND USE THEREOF” (Chengdu Shetai Medical Technology Co., Ltd., priority 2023, published 2026).
